Source: article PMC8421406, “C9orf72-derived arginine-rich poly-dipeptides impede phase modifiers” (Nature Communications, 2021)

What was measured:
Kapβ2 = test: Solution NMR (1H-13C methyl) of labelled Kapβ2; assay type: binding; conditions: comparison of perturbations by PR20, M9M and FUS-ΔNLS
Method: The Kapβ2 expression plasmid was transformed into BL21(DE3) cells. The protein samples with ^1H,^13C-labeled methyl groups in deuterium background were prepared as described in a previous study. The cells were grown in medium with ^15NH4Cl (2 gL^−1, CIL) and ^2H7-glucose (2 g L^−1, CIL) in 99.9% ^2H2O (Isotec). The precursors for methyl groups of Ile, Val, and Leu, α-ketobutyric acid (50 mg L^−1) and α-ketoisovaleric acid (80 mg L^−1), and [^13CH3] methionine (50 mg L^−1) were added to the culture 1 h before the addition of IPTG. Protein expression was induced by the addition of 0.5 mM IPTG at OD600 ~ 0.6, followed by ~16 h of incubation at 25 °C. […] Protein concentration was determined spectrophotometrically at 280 nm using a corresponding extinction coefficient.
The isotopically labeled Kapβ2 was prepared in the NMR buffer containing 20 mM ^2H-Tris pH 7.4, 150 mM NaCl, 2 mM MgCl2, 2 mM DTT, and 2% glycerol, concentrated to 20 μM. […] Perturbation of the side chain methyl resonances were each monitored using ^1H-^13C heteronuclear multiple quantum coherence. […] The perturbations of the resonances were evaluated based on chemical shift change or intensity change. […]
In order to investigate the interaction between Kapβ2 and PR poly-dipeptide by NMR, the NMR spectra of the isotopically labeled Kapβ2 in the absence and presence of the synthetic peptide of PR20:HA were measured. […]

[1] = test system: FUS droplets (MBP:FUS/MBP:FUS:EGFP) / Kapβ2; test: Fluorescence microscopy of FUS droplets; assay type: biochemical; conditions: 16 μM Kapβ2, 16 μM Kapβ2–M9M complex, 50 μM PR20, repeated three times
[2] = test system: GFP:FUS-LC:NLS / mCh:FUS-LC hydrogel; test: Hydrogel binding assay, GFP:FUS-LC:NLS on mCh:FUS-LC hydrogel; assay type: biochemical; conditions: Kapβ2 0.1-1.0 µM; PR20 with 1.0 µM Kapβ2
Method: The experiment was independently repeated three times with similar results. Here, 10 μm scale bars are shown in the image. e Graphical description of hydrogel binding assay. Hydrogels of mCh:LC-domain accumulate GFP:LC-domain as it co-polymerizes. f Hydrogel binding assay for FUS-LC in the absence and presence of Kapβ2. mCh:FUS-LC (lower images) were incubated with 1.0 µM of GFP (left panel) or 1.0 µM of GFP:FUS-LC:NLS (right panel) in the presence of different concentrations of Kapβ2 (left to right: 0.1, 0.3, and 1.0 µM). g Quantitative analysis of Fig. 1f. Relative intensity of GFP signals is shown as the mean of three independent experiments ± SD, analyzed by one-way ANOVA followed by Dunnett’s multiple comparison test (**P < 0.01, ***P < 0.001). h Hydrogel binding assay for FUS-LC in the absence and presence of Kapβ2 and/or PR20. Hydrogel droplets of mCh:FUS-LC (lower images) were incubated with 1.0 µM of GFP (left panel) or GFP:FUS-LC:NLS (right panel). GFP:FUS-LC:NLS containing Kapβ2 (1.0 µM) was challenged for homotypic polymer extension in the absence or presence of different concentration of PR20. i Quantitative analysis of Fig. 1h. Relative intensity of GFP signals is shown as the mean of three independent experiments ± SD, analyzed by one-way ANOVA followed by Dunnett’s multiple comparison test (**P < 0.01). Source data are provided as a Source Data file. […]

[3] = test system: MBP:FUS (full-length FUS droplets) / Kapβ2; test: Turbidity assay of FUS droplet formation (OD 395 nm); assay type: biochemical; conditions: 8 μM Kapβ2, 8 μM MBP:FUS
[4] = test system: GFP:FUS-LC / mCh:FUS-LC hydrogel; test: Hydrogel binding assay, GFP:FUS-LC on mCh:FUS-LC hydrogel; assay type: biochemical; conditions: Kapβ2 0.1-10.0 µM; 1.0 µM GFP:FUS-LC
Description: Expression plasmids for recombinant proteins (GFP/mCherry fusion LC-domain of FUS (residue 2–214, GFP/mCh:FUS-LC) and GFP/mCherry fusion LC-domain of hnRNPA2 (residue 181–341, GFP/mCh:hnRNPA2-LC)) were obtained from the Steven L. McKnight Laboratory. Expression plasmid for GFP:FUS-LC fusion NLS (residue 501–526, GFP:FUS-LC:NLS), mCh fusion LC-domain of TDP43 (residue 262–414, mCh:TDP43-LC), and GFP-tagged cNLS (residue 78–99) fusion TDP43-LC (GFP:cNLS:TDP43-LC) were constructed using In-Fusion HD Cloning Kit (Takara Bio, Inc.). GFP/mCh:FUS-LC, GFP:FUS-LC:NLS, and GFP/mCh:hnRNPA2-LC were expressed in E. coli BL21(DE3) cells with 0.5 mM IPTG at 20 °C overnight and purified by Ni-NTA Agarose (FUJIFILM Wako Pure Chemical Corporation), as described in a previous study. GFP:cNLS:TDP43-LC were expressed with 1.0 mM IPTG at 37 °C for 3 h and mCh:TDP43-LC were expressed with 0.5 mM IPTG at 16 °C overnight. GFP:cNLS:TDP43-LC and mCh:TDP43-LC were purified by Ni-NTA as described in a previous study[48] with some modifications. […] Relative intensity of GFP signals across the hydrogel droplets were measured in triplicate by using the profile plot mode in ImageJ. […]

B1: FUS-ΔNLS: FUS (1-500, FUS-ΔNLS) (protein)
chain: MASNDYTQQATQSYGAYPTQPGQGYSQQSSQPYGQQSYSGYSQSTDTSGYGQSSYSSYGQSQNTGYGTQSTPQGYGSTGGYGSSQSSQSSYGQQSSYPGYGQQPAPSSTSGSYGSSSQSSSYGQPQSGSYSQQPSYGGQQQSYGQQQSYNPPQGYGQQNQYNSSSGGGGGGGGGGNYGQDQSSMSSGGGSGGGYGNQDQSGGGGSGGYGQQDRGGRGRGGSGGGGGGGGGGYNRSSGGYEPRGRGGGRGGRGGMGGSDRGGFNKFGGPRDQGSRHDSEQDNSDNNTIFVQGLGENVTIESVADYFKQIGIIKTNKKTGQPMINLYTDRETGKLKGEATVSFDDPPSAKAAIDWFDGKEFSGNPIKVSFATRRADFNRGGGNGRGGRGRGGPMGRGGYGGGGSGGGGRGGFPSGGGGGGGQQRAGDWKCPNPTCENMNFSWRNECNQCKAPKPDGPGGGPGGSHMGGNYGDDRRGGRGGYDRGGYRGRGGDRGGFRGGRGG
modifications: left off: MBP, end not stated, state not stated
- Binding site on Kapβ2 by NMR (Kapβ2): the binding site for FUS-ΔNLS does not overlap with that for PR20

B2: Kapβ2: nuclear import receptor karyopherin-β2, recombinant (protein)
chain: MVWDRQTKMEYEWKPDEQGLQQILQLLKESQSPDTTIQRTVQQKLEQLNQYPDFNNYLIFVLTKLKSEDEPTRSLSGLILKNNVKAHFQNFPNGVTDFIKSECLNNIGDSSPLIRATVGILITTIASKGELQNWPDLLPKLCSLLDSEDYNTCEGAFGALQKICEDSAEILDSDVLDRPLNIMIPKFLQFFKHSSPKIRSHAVACVNQFIISRTQALMLHIDSFIENLFALAGDEEPEVRKNVCRALVMLLEVRMDRLLPHMHNIVEYMLQRTQDQDENVALEACEFWLTLAEQPICKDVLVRHLPKLIPVLVNGMKYSDIDIILLKGDVEEDETIPDSEQDIRPRFHRSRTVAQQHDEDGIEEEDDDDDEIDDDDTISDWNLRKCSAAALDVLANVYRDELLPHILPLLKELLFHHEWVVKESGILVLGAIAEGCMQGMIPYLPELIPHLIQCLSDKKALVRSITCWTLSRYAHWVVSQPPDTYLKPLMTELLKRILDSNKRVQEAACSAFATLEEEACTELVPYLAYILDTLVFAFSKYQHKNLLILYDAIGTLADSVGHHLNKPEYIQMLMPPLIQKWNMLKDEDKDLFPLLECLSSVATALQSGFLPYCEPVYQRCVNLVQKTLAQAMLNNAQPDQYEAPDKDFMIVALDLLSGLAEGLGGNIEQLVARSNILTLMYQCMQDKMPEVRQSSFALLGDLTKACFQHVKPCIADFMPILGTNLNPEFISVCNNATWAIGEISIQMGIEMQPYIPMVLHQLVEIINRPNTPKTLLENTAITIGRLGYVCPQEVAPMLQQFIRPWCTSLRNIRDNEEKDSAFRGICTMISVNPSGVIQDFIFFCDAVASWINPKDDLRDMFCKILHGFKNQVGDENWRRFSDQFPLPLKERLAAFYGV
modifications: left off: GST, end not stated, cleaved
notes: nuclear import receptor karyopherin-β2, recombinant
- Effect on FUS droplets (microscopy) [1]: FUS droplets are dissolved by Kapβ2
- Effect on hydrogel binding of GFP:FUS-LC:NLS [2]: blocked by Kapβ2
- Effect of Kapβ2 on FUS droplet formation (turbidity) [3]: kept FUS from changing into liquid-like droplets
- Effect on hydrogel binding of GFP:FUS-LC [4]: not blocked
